Results published in PMC4935801, “The Arabidopsis Golgi-localized GDP-L-fucose transporter is required for plant development” (Nature Communications, 2016).

B1: GFT1 (Arabidopsis thaliana) (protein)
chain: MSSSRFDSNKQLTTSSLVIGYALCSSLLAVINKLAITYFNYPGLLTALQYLTCTVAVYLLGKSGLINHDPFTWDTAKKFLPAAIVFYLAIFTNTNLLRHANVDTFIVFRSLTPLLVAIADTVFRSQPLPSRLTFLSLVVILAGAVGYVATDSSFTLTAYSWALAYLVTITTEMVYIKHMVSNIKLNIWGLVLYNNLLSLMIAPVFWFLTGEFTEVFAALSENRGNLFEPYAFSSVAASCVFGFLISYFGFAARNAISATAFTVTGVVNKFLTVVINVLIWDKHATPVGLVCLLFTICGGVGYQQSVKLDKPIEKVSEKDSEKGEEDEELTQLVPGKLASVV
notes: yeast microsomal protein reconstituted into liposomes
B2: GONST1 (Arabidopsis thaliana) (protein)
chain: MKLYEHDGVDLEDGKTVKSGGDKPIPRKIHNRALLSGLAYCISSCSMILVNKFVLSSYNFNAGIFLMLYQNFVSVIIVVGLSLMGLITTEPLTLRLMKVWFPVNVIFVGMLITSMFSLKYINVAMVTVLKNVTNVITAVGEMYLFNKQHDNRVWAALFLMIISAVSGGITDLSFNAVGYAWQIANCFLTASYSLTLRKTMDTAKQVTQSGNLNEFSMVLLNNTLSLPLGLLLSYFFNEMDYLYQTPLLRLPSFWMVMTLSGLLGLAISFTSMWFLHQTGATTYSLVGSLNKIPLSIAGIVLFNVPTSLQNSASILFGLVAGVVFARAKMREKS
notes: as for B1

Assays:
Assay in all cases: proteo-liposome transport assay, LC-MS/MS
Assay type in all cases: biochemical, Arabidopsis thaliana
Settings in all cases: apparent Km, proteo-liposomes pre-loaded with 10 mM GMP, 0.5–400 μM substrate, 25 °C, pH 7.5, mean (s.e.m.) n=4
[1] = substrate: C[C@@H]1O[C@H](OP(=O)(O)OP(=O)(O)OC[C@H]2O[C@@H](n3cnc4c(=O)[nH]c(N)nc43)[C@H](O)[C@@H]2O)[C@@H](O)[C@H](O)[C@@H]1O
Source text: proteo-liposome transport assay, LC-MS/MS on GFT1

[2] = substrate: Nc1nc2c(ncn2[C@@H]2O[C@H](COP(=O)(O)OP(=O)(O)O[C@H]3O[C@H](CO)[C@@H](O)[C@H](O)[C@@H]3O)[C@@H](O)[C@H]2O)c(=O)[nH]1
Source text: (§1) proteo-liposome transport assay, LC-MS/MS on GONST1

[3] = substrate: C[C@@H]1O[C@H](OP(=O)(O)OP(=O)(O)OC[C@H]2O[C@@H](n3cnc4c(=O)[nH]c(N)nc43)[C@H](O)[C@@H]2O)[C@@H](O)[C@H](O)[C@@H]1O; remark: listed apart in the source
Source text: as §1

Protein | Km [1] | Vmax [1] | kcat [1] | Km [2] | Vmax [2] | kcat [2] | Km [3] | Vmax [3] | kcat [3]
B1 | 7 (1) μM | 3.24 µM/min | 4 s⁻¹ | – | – | – | – | – | –
B2 | – | – | – | 17 (3) μM | 1.44 µM/min | 1.2 s⁻¹ | 76 (5) μM | 0.84 µM/min | 0.7 s⁻¹
